Measured values published in patent US20170101454A1 (Novo Nordisk, published 2017).
Starred links: 1 amine or outer side, 2 acyl side, 3 side chain; linkers in the order of their positions; H or OH if unused. Non-standard residues stand in square brackets, D forms with d. Groups on a side chain read outwards from the residue. No end group written: not given here. *: point of attachment. C18 diacid = O=C(O)CCCCCCCCCCCCCCCCC(=O)*; γGlu = O=C(O)[C@H](CCC(=O)[*:2])N[*:1]; AEEA = NCCOCCOCC(=O)O; Aib = CC(C)(N)C(=O)O

B1: N^ε28-[2-[2-[2-[[2-[2-[2-[[(4S)-4-carboxy-4-[[(4S)-4-carboxy-4-[[(4S)-4-carboxy-4-(17-carboxyheptadecanoylamino)butanoyl]amino]butanoyl]amino]butanoyl]amino]eth … (peptide)
peptide: H[Aib]QGTFTSDVSKYLESRRAQDFVQWLIK([AEEA-AEEA-γGlu-γGlu-γGlu-C18 diacid])T-NH2
modifications: N-terminus assumed
SMILES: CC[C@H](C)[C@H](NC(=O)[C@H](CC(C)C)NC(=O)[C@H](Cc1c[nH]c2ccccc12)NC(=O)[C@H](CCC(N)=O)NC(=O)[C@@H](NC(=O)[C@H](Cc1ccccc1)NC(=O)[C@H](CC(=O)O)NC(=O)[C@H](CCC(N)=O)NC(=O)[C@H](C)NC(=O)[C@H](CCCNC(=N)N)NC(=O)[C@H](CCCNC(=N)N)NC(=O)[C@H](CO)NC(=O)[C@H](CCC(=O)O)NC(=O)[C@H](CC(C)C)NC(=O)[C@H](Cc1ccc(O)cc1)NC(=O)[C@H](CCCCN)NC(=O)[C@H](CO)NC(=O)[C@@H](NC(=O)[C@H](CC(=O)O)NC(=O)[C@H](CO)NC(=O)[C@@H](NC(=O)[C@H](Cc1ccccc1)NC(=O)[C@@H](NC(=O)CNC(=O)[C@H](CCC(N)=O)NC(=O)C(C)(C)NC(=O)[C@@H](N)Cc1c[nH]cn1)[C@@H](C)O)[C@@H](C)O)C(C)C)C(C)C)C(=O)N[C@@H](CCCCNC(=O)COCCOCCNC(=O)COCCOCCNC(=O)CC[C@H](NC(=O)CC[C@H](NC(=O)CC[C@H](NC(=O)CCCCCCCCCCCCCCCCC(=O)O)C(=O)O)C(=O)O)C(=O)O)C(=O)N[C@H](C(N)=O)[C@@H](C)O
notes: also called Chem. 10; Chem 10
B2: N^ε28-[2-[2-[2-[[2-[2-[2-[[(4S)-4-carboxy-4-[[(4S)-4-carboxy-4-[[(4S)-4-carboxy-4-(17-carboxyheptadecanoylamino)butanoyl]amino]butanoyl]amino]butanoyl]amino]eth … (peptide)
peptide: H[Aib]QGTFTSDLSKYLDARRAREFVQWLIK([AEEA-AEEA-γGlu-γGlu-γGlu-C18 diacid])T-NH2
modifications: N-terminus assumed
SMILES: CC[C@H](C)[C@H](NC(=O)[C@H](CC(C)C)NC(=O)[C@H](Cc1c[nH]c2ccccc12)NC(=O)[C@H](CCC(N)=O)NC(=O)[C@@H](NC(=O)[C@H](Cc1ccccc1)NC(=O)[C@H](CCC(=O)O)NC(=O)[C@H](CCCNC(=N)N)NC(=O)[C@H](C)NC(=O)[C@H](CCCNC(=N)N)NC(=O)[C@H](CCCNC(=N)N)NC(=O)[C@H](C)NC(=O)[C@H](CC(=O)O)NC(=O)[C@H](CC(C)C)NC(=O)[C@H](Cc1ccc(O)cc1)NC(=O)[C@H](CCCCN)NC(=O)[C@H](CO)NC(=O)[C@H](CC(C)C)NC(=O)[C@H](CC(=O)O)NC(=O)[C@H](CO)NC(=O)[C@@H](NC(=O)[C@H](Cc1ccccc1)NC(=O)[C@@H](NC(=O)CNC(=O)[C@H](CCC(N)=O)NC(=O)C(C)(C)NC(=O)[C@@H](N)Cc1c[nH]cn1)[C@@H](C)O)[C@@H](C)O)C(C)C)C(=O)N[C@@H](CCCCNC(=O)COCCOCCNC(=O)COCCOCCNC(=O)CC[C@H](NC(=O)CC[C@H](NC(=O)CC[C@H](NC(=O)CCCCCCCCCCCCCCCCC(=O)O)C(=O)O)C(=O)O)C(=O)O)C(=O)N[C@H](C(N)=O)[C@@H](C)O
notes: also called Chem. 6; Chem 6
B3: N^ε28-[2-[2-[2-[[2-[2-[2-[[(4S)-4-carboxy-4-[[(4S)-4-carboxy-4-[[(4S)-4-carboxy-4-(17-carboxyheptadecanoylamino)butanoyl]amino]butanoyl]amino]butanoyl]amino]eth … (peptide)
peptide: H[Aib]QGTFTSDLSKYLESRRARDFVQWLIK([AEEA-AEEA-γGlu-γGlu-γGlu-C18 diacid])T-NH2
modifications: N-terminus assumed
SMILES: CC[C@H](C)[C@H](NC(=O)[C@H](CC(C)C)NC(=O)[C@H](Cc1c[nH]c2ccccc12)NC(=O)[C@H](CCC(N)=O)NC(=O)[C@@H](NC(=O)[C@H](Cc1ccccc1)NC(=O)[C@H](CC(=O)O)NC(=O)[C@H](CCCNC(=N)N)NC(=O)[C@H](C)NC(=O)[C@H](CCCNC(=N)N)NC(=O)[C@H](CCCNC(=N)N)NC(=O)[C@H](CO)NC(=O)[C@H](CCC(=O)O)NC(=O)[C@H](CC(C)C)NC(=O)[C@H](Cc1ccc(O)cc1)NC(=O)[C@H](CCCCN)NC(=O)[C@H](CO)NC(=O)[C@H](CC(C)C)NC(=O)[C@H](CC(=O)O)NC(=O)[C@H](CO)NC(=O)[C@@H](NC(=O)[C@H](Cc1ccccc1)NC(=O)[C@@H](NC(=O)CNC(=O)[C@H](CCC(N)=O)NC(=O)C(C)(C)NC(=O)[C@@H](N)Cc1c[nH]cn1)[C@@H](C)O)[C@@H](C)O)C(C)C)C(=O)N[C@@H](CCCCNC(=O)COCCOCCNC(=O)COCCOCCNC(=O)CC[C@H](NC(=O)CC[C@H](NC(=O)CC[C@H](NC(=O)CCCCCCCCCCCCCCCCC(=O)O)C(=O)O)C(=O)O)C(=O)O)C(=O)N[C@H](C(N)=O)[C@@H](C)O
notes: also called Chem. 3; Chem 3
B4: N^ε28-[2-[2-[2-[[2-[2-[2-[[(4S)-4-carboxy-4-[[(4S)-4-carboxy-4-[[(4S)-4-carboxy-4-(17-carboxyheptadecanoylamino)butanoyl]amino]butanoyl]amino]butanoyl]amino]eth … (peptide)
peptide: H[Aib]QGTFTSDLSKYLDLRRAQDFVQWLIK([AEEA-AEEA-γGlu-γGlu-γGlu-C18 diacid])T-NH2
modifications: N-terminus assumed
SMILES: CC[C@H](C)[C@H](NC(=O)[C@H](CC(C)C)NC(=O)[C@H](Cc1c[nH]c2ccccc12)NC(=O)[C@H](CCC(N)=O)NC(=O)[C@@H](NC(=O)[C@H](Cc1ccccc1)NC(=O)[C@H](CC(=O)O)NC(=O)[C@H](CCC(N)=O)NC(=O)[C@H](C)NC(=O)[C@H](CCCNC(=N)N)NC(=O)[C@H](CCCNC(=N)N)NC(=O)[C@H](CC(C)C)NC(=O)[C@H](CC(=O)O)NC(=O)[C@H](CC(C)C)NC(=O)[C@H](Cc1ccc(O)cc1)NC(=O)[C@H](CCCCN)NC(=O)[C@H](CO)NC(=O)[C@H](CC(C)C)NC(=O)[C@H](CC(=O)O)NC(=O)[C@H](CO)NC(=O)[C@@H](NC(=O)[C@H](Cc1ccccc1)NC(=O)[C@@H](NC(=O)CNC(=O)[C@H](CCC(N)=O)NC(=O)C(C)(C)NC(=O)[C@@H](N)Cc1c[nH]cn1)[C@@H](C)O)[C@@H](C)O)C(C)C)C(=O)N[C@@H](CCCCNC(=O)COCCOCCNC(=O)COCCOCCNC(=O)CC[C@H](NC(=O)CC[C@H](NC(=O)CC[C@H](NC(=O)CCCCCCCCCCCCCCCCC(=O)O)C(=O)O)C(=O)O)C(=O)O)C(=O)N[C@H](C(N)=O)[C@@H](C)O
notes: also called Chem. 9; Chem 9
B5: N^ε28-[2-[2-[2-[[2-[2-[2-[[(4S)-4-carboxy-4-[[(4S)-4-carboxy-4-[[(4S)-4-carboxy-4-(17-carboxyheptadecanoylamino)butanoyl]amino]butanoyl]amino]butanoyl]amino]eth … (peptide)
peptide: H[Aib]QGTFTSDLSKYLESRRAQDFVQWLIK([AEEA-AEEA-γGlu-γGlu-γGlu-C18 diacid])T-NH2
modifications: N-terminus assumed
SMILES: CC[C@H](C)[C@H](NC(=O)[C@H](CC(C)C)NC(=O)[C@H](Cc1c[nH]c2ccccc12)NC(=O)[C@H](CCC(N)=O)NC(=O)[C@@H](NC(=O)[C@H](Cc1ccccc1)NC(=O)[C@H](CC(=O)O)NC(=O)[C@H](CCC(N)=O)NC(=O)[C@H](C)NC(=O)[C@H](CCCNC(=N)N)NC(=O)[C@H](CCCNC(=N)N)NC(=O)[C@H](CO)NC(=O)[C@H](CCC(=O)O)NC(=O)[C@H](CC(C)C)NC(=O)[C@H](Cc1ccc(O)cc1)NC(=O)[C@H](CCCCN)NC(=O)[C@H](CO)NC(=O)[C@H](CC(C)C)NC(=O)[C@H](CC(=O)O)NC(=O)[C@H](CO)NC(=O)[C@@H](NC(=O)[C@H](Cc1ccccc1)NC(=O)[C@@H](NC(=O)CNC(=O)[C@H](CCC(N)=O)NC(=O)C(C)(C)NC(=O)[C@@H](N)Cc1c[nH]cn1)[C@@H](C)O)[C@@H](C)O)C(C)C)C(=O)N[C@@H](CCCCNC(=O)COCCOCCNC(=O)COCCOCCNC(=O)CC[C@H](NC(=O)CC[C@H](NC(=O)CC[C@H](NC(=O)CCCCCCCCCCCCCCCCC(=O)O)C(=O)O)C(=O)O)C(=O)O)C(=O)N[C@H](C(N)=O)[C@@H](C)O
notes: also called Chem. 8; Chem 8
B6: N^ε28-[2-[2-[2-[[2-[2-[2-[[(4S)-4-carboxy-4-[[(4S)-4-carboxy-4-[[(4S)-4-carboxy-4-(17-carboxyheptadecanoylamino)butanoyl]amino]butanoyl]amino]butanoyl]amino]eth … (peptide)
peptide: H[Aib]QGTFTSDLSKYLDARRAQDFVQWLIK([AEEA-AEEA-γGlu-γGlu-γGlu-C18 diacid])T-NH2
modifications: N-terminus assumed
SMILES: CC[C@H](C)[C@H](NC(=O)[C@H](CC(C)C)NC(=O)[C@H](Cc1c[nH]c2ccccc12)NC(=O)[C@H](CCC(N)=O)NC(=O)[C@@H](NC(=O)[C@H](Cc1ccccc1)NC(=O)[C@H](CC(=O)O)NC(=O)[C@H](CCC(N)=O)NC(=O)[C@H](C)NC(=O)[C@H](CCCNC(=N)N)NC(=O)[C@H](CCCNC(=N)N)NC(=O)[C@H](C)NC(=O)[C@H](CC(=O)O)NC(=O)[C@H](CC(C)C)NC(=O)[C@H](Cc1ccc(O)cc1)NC(=O)[C@H](CCCCN)NC(=O)[C@H](CO)NC(=O)[C@H](CC(C)C)NC(=O)[C@H](CC(=O)O)NC(=O)[C@H](CO)NC(=O)[C@@H](NC(=O)[C@H](Cc1ccccc1)NC(=O)[C@@H](NC(=O)CNC(=O)[C@H](CCC(N)=O)NC(=O)C(C)(C)NC(=O)[C@@H](N)Cc1c[nH]cn1)[C@@H](C)O)[C@@H](C)O)C(C)C)C(=O)N[C@@H](CCCCNC(=O)COCCOCCNC(=O)COCCOCCNC(=O)CC[C@H](NC(=O)CC[C@H](NC(=O)CC[C@H](NC(=O)CCCCCCCCCCCCCCCCC(=O)O)C(=O)O)C(=O)O)C(=O)O)C(=O)N[C@H](C(N)=O)[C@@H](C)O
notes: also called Chem. 7; Chem 7

What was measured:
[1] = target: T1, human GLP-1 receptor (human, UniProt P43220 24-463); assay: cell-based or functional assay
[2] = target: T2, human glucagon receptor (human, UniProt P47871 26-477); assay: cell-based or functional assay
T2 sequence (P47871 26-477): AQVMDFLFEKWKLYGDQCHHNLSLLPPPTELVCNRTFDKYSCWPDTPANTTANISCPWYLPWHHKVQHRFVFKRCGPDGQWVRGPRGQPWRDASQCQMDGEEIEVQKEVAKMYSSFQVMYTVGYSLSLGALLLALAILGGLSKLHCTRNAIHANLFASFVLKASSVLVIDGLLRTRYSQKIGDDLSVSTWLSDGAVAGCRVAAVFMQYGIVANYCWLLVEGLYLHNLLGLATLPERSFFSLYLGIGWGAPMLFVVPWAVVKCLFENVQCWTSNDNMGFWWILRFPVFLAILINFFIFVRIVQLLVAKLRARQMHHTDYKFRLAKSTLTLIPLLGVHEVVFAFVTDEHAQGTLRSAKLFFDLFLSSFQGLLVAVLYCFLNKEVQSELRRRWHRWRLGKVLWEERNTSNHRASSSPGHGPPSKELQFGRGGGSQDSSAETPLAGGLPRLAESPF

[3] = target: T1, human GLP-1 receptor; assay: displacement of [125I]-GLP-1-(7-36)NH2 from BHK membranes with human GLP-1R, SPA, no serum albumin
[4] = target: T2, human glucagon receptor; assay: displacement of [125I]-glucagon from BHK membranes with human glucagon receptor, SPA, no serum albumin

| Binder | GLP-1R EC50 (pM) [Assay (I)(a)], CRE luciferase reporter, BHK cells [1] | GlucagonR EC50 (pM), [Assay (I)(b)], CRE luciferase reporter, BHK cells [2] | IC50 [3] | IC50 [4] |
| --- | --- | --- | --- | --- |
| B1 | 3 pM | 748 pM | 0.1 nM | 42.4 nM |
| B2 | 5 pM | 14 pM | 0.1 nM | 3.7 nM |
| B3 | 2 pM | 245 pM | 0.1 nM | 31.6 nM |
| B4 | 10 pM | 44 pM | 0.5 nM | 17.3 nM |
| B5 | 7 pM | 517 pM | 0.1 nM | 27.6 nM |
| B6 | 2 pM | 32 pM | 0.3 nM | 6 nM |
